Data on 15 molecules can be found in patent US20220396632A1 (VERSEAU THERAPEUTICS, published 2022).

The labels stand for the following.
T1: Scrambled Y42,52,63(SO3) PSGL-1(42-62) biotin peptide (sulfotyrosine at peptide positions 1, 11 and 22; C-terminal Lys-biotin)
T1 peptide: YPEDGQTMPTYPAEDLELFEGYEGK

T2: Biotin PSGL-1(42-62) peptide, unmodified (human, C-terminal Lys-biotin)
T2 construct: Residues 42-62 followed by GGGK-biotin; also called WT; wild-type
T2 peptide: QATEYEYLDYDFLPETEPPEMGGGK

T3: Biotin Y46,48,51(SO3) PSGL-1(42-62) peptide (human, sulfotyrosine at Y46, Y48 and Y51; C-terminal Lys-biotin)
T3 construct: also called fully sulfated N-terminal PSGL-1 peptide
T3 peptide: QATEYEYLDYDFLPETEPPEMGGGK

B1: 06C04 (antibody, IgG4, V domains shown)
VH: EVQLVESGGGLVQPGGSLRLSCAASGFTFSDHYMDWVRQAPGKGLEWVGRSRNKVKSYTTAYAASVEGRITISRDDSKNSLYLEMNSLKTEDTAVYYCVRVRWGGAFDIWGQGTMVTVSS
VL: QPVLTQPPSASGSPGQSVTISCTGTSSDVGGYNYVSWYQQHPGKAPKLMIYEVSKRPSGVPDRFSGSKSGNTASLTVSGLQAEDEADYYCSSYAGSNNLRVFGGGTKLTVL
B2: 03D07 (antibody, IgG4, V domains shown)
VH: EVKLLESGGGLVQPGGSLRLSCAASGFTFSSYALSWVRQAPGKGLEWVSAISGSGGNTYYADSVKGRFTISRDNSKNTLYLQMNSLRAEDTAVYYCAKVVGATNYWGQGTLVTVSS
VL: DIVMTQTPLSLPVTLGQPASISCRSSQSLVYSDGHTYLSWFHQRPGQSPRRLIYKVSIRDSGVPDRFSGSGSGTDFTLKISRVEAEDVGVYYCMQRLQIPLTFGGGTKVEIK
B3: 09A02 (antibody, IgG4, V domains shown)
VH: EVQLVQSGGGLVKPGGSLRLSCAASGFTFRTAWMSWVRQAPGKGLEWVGRMKSKNDGGTTDYAAPVKGRFTISRDDSRDTVYLQMNSLKTEDTGVYYCATYAAGATVPWGQGTLVTVSS
VL: DIVMTQTPLSAPVTLGQPASISCRSSRSLLQRNGYNYVDWYQQKAGNPPRLLIYLGSRRASGVPDRFSGSGSDKDFTLKISRVEADDVGFYFCKQSLQAPPTFGGGTKIEIT
B4: 09A08 (antibody, IgG4, V domains shown)
VH: QVQLVQSGAAVKKPGESLKISCKGSGYTFSNYWIGWVRQMPGKGLEWMGIIYPGDSDTRYSPSFQGQVTISADKSISTAYLQWSSLKASDTAMYYCARHIVGPPKSAFDIWGQGTMVTVSS
VL: DIVMTQTPLSLPVTLGQPASISCSSSQGLQKRDGNTYLNWFQQRPGQSPRRLIYKVSNRDSGVPDRFSGSGSGTDFTLKISRVEAEDVGVYYCMQGTHWPWTFGQGTRVEIK
B5: 07E07 (antibody, IgG4, V domains shown)
VH: QVQLQQSGAEVKKPGASVKVSCKASGYTFTSYYMHWVRQAPGQGLEWMGIINTSSGSTKYAQRFQDRVTVTRDTSTTTVYMELNSLRSEDTAVYYCARGGRAYSGSFDNWGQGTLVTVSS
VL: B4 VL with I2V, T7S, S24R, G28S, Q30V, K31H, L38F, G96A, W101R, R108K
B6: 09C10 (antibody, V domains shown)
VH: EVKLLESGGGLIQPGGSLRLSCAASGFTVSNNYVTWVRQAPGKGLELVSSIYSGGGTYYADSVKGRFTISRDNSKNTVYLQMNSLRADDTAVYYCARNVPVTNFGYWGQGTLVTVSS
VL: DIVMTQSPLSLPVTLGQPASISCRSSQSLVYRDGNTYLNWFQQRPGQSPRRLIYKVSNRDSGVPDRFSGSGSGTDFTLKISRVEAEDVGVYYCMQLTHWPPGFAQGTKLEIK
B7: 06A07 (antibody, IgG4, V domains shown)
VH: QVQLVQSGPELKNPGASVKVSCKASGYSFTNFYINWVRQAPGRGLEWVGWISPNNGNTHYARNLQGRVTMTTDTSTNTAYLELKNLRSDDTAIYFCGRSVSMGYWGQGTLVTVSS
VL: LPVLTQPPSVSKGLRQTATLTCTGNSKNVGNQGAAWLQQHQGQPPKLLSYRNNNRPSGISERFSASRSGNTASLTITGLQPEDEADYYCSAWDSSLSAQVFGGGTKLTVL
B8: 11D10 (antibody, IgG4, V domains shown)
VH: EVKLLESGGGLVQPGGSLRLSCAVSGFTFSTSAMIWVRQAPGKGLEWVSFISGSTSNTYYADSVKGRFTISRDNSKNTLYLQMNGLTAEDTAVYYCARGTAAATWGQGALVTVSS
VL: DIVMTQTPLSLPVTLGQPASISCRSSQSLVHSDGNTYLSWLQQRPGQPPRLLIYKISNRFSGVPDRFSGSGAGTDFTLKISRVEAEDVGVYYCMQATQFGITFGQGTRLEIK
B9: 05E08 (antibody, IgG4, V domains shown)
VH: EVQLVQSGGGVVQPGRSLRLSCAASGFTFSTYAMHWVRQAPGKGLEWVAVISYDGSNKYYADSVKGRFTISRDNSRNTLFLQMNSLRDEDTAVYYCAKRGTMIRGERSLDFWGQGTLVTVSS
VL: AIQMTQSPSFLSASVGDRVTITCRASQGINSWLAWYQQKPGTAPNLLIHAASTLQSGVPSRFSGSRSGTEFTLTISSLQPEDFATYYCQQLQSYPLTFGQGTRLEIK
B10: 05C02 (antibody, V domains shown)
VH: EVKLLESGGGVVQPGRSLRLSCAASGFTFKNFAMHWVRQAPGKGLEWVAVISYDGSSEDYADSVKGRFTLSRDNAKNSLYLQMNNLRAEDTAVYYCARGRRPDYWGQGTLVTVSS
VL: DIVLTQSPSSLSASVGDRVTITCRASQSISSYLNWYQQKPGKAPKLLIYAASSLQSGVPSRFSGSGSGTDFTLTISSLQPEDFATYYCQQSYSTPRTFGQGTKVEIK
B11: 05A11 (antibody, IgG4, V domains shown)
VH: EVKLLESGGGVVQPGRSLRLSCAASGFSFSAYGMHWVRQAPGKGLEWVSSISGSGDGTYYADSVKGRFTISRDNSKNTLYLQMNSLRAEDAAVYYCAKSVKGRGYFFDYWGQGTLVTVSS
VL: DIVLTQSPSSLSASVGDRVTITCRASQSISSYLNWYQQKPGKAPKLLIYAASSLQSGVPSRFSGSGSGTDFTLSISNLQPEDFATYYCQQAYKFPRSFGGGTKVEFK
B12: 09D04 (antibody, IgG4, V domains shown)
VH: QVQLQQSGGGLVQPGGSLTLSCVGSGFDFRSYAMSWVRQAPGKGLEWVSGINNSGSKTYYADFVKGRFSVSRDNSKNIVWLRMRSLRAEDTAVYYCARRTFGPPHAWGQGTMVTVSS
VL: DVVMTQSPLSLPVTPGEPASISCRSSQSLLHSNGYTYLEWYLHKPGQSPQLLIYLGSNRASGVPDRFSGSGSGTDFTLKISRVEAEDVGVYYCMHSLHIPFTFGPGTKVDIK
B13: 05H03 (antibody, IgG4, V domains shown)
VH: B12 VH
VL: DIVMTQSPLSLSVTPGEPASISCRSSQSLLHSNGYKYLDWYLQKPGQSPQLLIYMGSNRASGVPDRFSGSGSGTDFTLKISRVEAEDVGVYYCMQGLQSPLTFGGGTKVEIE
B14: 03F03 (antibody, V domains shown)
VH: QVQLQESGPGLVKPSETLSLTCTVSGGSISSSSYYWGWIRQPPGKGLEWIGSIYYSGSTYYNPSLKSRVTISVDTSKNQFSLKLSSVTAADTAVYYCARSRPRPWAFDIWGQGTMVTVSS
VL: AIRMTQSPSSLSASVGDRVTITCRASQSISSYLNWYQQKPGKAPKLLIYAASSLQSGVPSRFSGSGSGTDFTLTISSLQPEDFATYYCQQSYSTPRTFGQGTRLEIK
B15: 10F01 (antibody, IgG4, V domains shown)
VH: EVQLVQSGGGLVQPGGSLRLSCAASGFTFSSYAMSWVRQAPGKGLEWVSALRGGDGGTYHADSVKGRFTISGDSSKNTLYLQMNSLRAEDTAVYYCARRMVGAAYAFDIWGQGTMVTVSS
VL: LPVLTQPHSVSESPGKTVTISCTRSSGSIADNFVQWYRQRPGSAPTTVIYEGDQRPSGVPGRFSGSIDSSSNSASLTISGLQTDDEADYYCQSFDSYNRRTHVVFGGGTKLTVL

Residue numbers refer to the chain shown, from its start.

For the first assay, the target named is T1, Scrambled Y42,52,63(SO3) PSGL-1(42-62) …. Put plainly: ELISA, immobilized biotin peptide. Put shortly: (§1)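 In this ELISA, half-well high binding plates (Corning Cat. #3690) received 3 ug/mL/25 ul per well of biotin-tagged PSGL-1 peptides covering residues 42 to 62, diluted in PBS, pH 7.4, and coated overnight at 4° C. Duplicate readings for each antibody were averaged and the average assay background was subtracted. PSGL-1 protein or peptide was the positive control.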
For orientation: ELISA stands for enzyme-linked immunosorbent assay.
On to B1, for which the binding result is “no binding (tested: 20 nM)”.
With B2, the binding result is listed as “no binding (tested: 20 nM)”.
Take B3: the “A450nm, 20 nM mAb” value is 0.03 A450nm and the binding result is on record as “no binding (tested: 20 nM)”.
With B4, the binding result is on record as “no binding (tested: 20 nM)”.
B5: the “A450nm, 20 nM mAb” value amounted to 0.01 A450nm and the binding result was “no binding (tested: 20 nM)”.
As for B6, the “A450nm, 20 nM mAb” value was determined as 0.21 A450nm.
With B7, the “A450nm, 20 nM mAb” value is 0.02 A450nm and the binding result is on record as “no binding (tested: 20 nM)”.
On to B8, for which the binding result is given as “no binding (tested: 20 nM)”.
On to B9, for which the “A450nm, 20 nM mAb” value is 0.01 A450nm and the binding result was “no binding (tested: 20 nM)”.
With B10, the binding result is on record as “no binding (tested: 20 nM)”.
On the same count and under the same terms, next, B11: “no binding (tested: 20 nM)”.
For the molecule B12, the “A450nm, 20 nM mAb” value was 0.05 A450nm and the binding result is on record as “no binding (tested: 20 nM)”.
For B13, in that order: 0.04 A450nm and “no binding (tested: 20 nM)”.
For B14, the “A450nm, 20 nM mAb” value was 0.03 A450nm and the binding result is recorded as “no binding (tested: 20 nM)”.

The target of a further assay is T2, Biotin PSGL-1(42-62) peptide, unmodified. Put plainly: ELISA, immobilized biotin peptide. An outline of the steps: as §1
In the case of B1, the “A450nm, 20 nM mAb” value stood at 0.07 A450nm.
As for B2, the EC50 was over 500000 pM.
As for B3, the EC50 was about 500000 pM.
On the same count and under the same terms, the result for B4 reads over 500000 pM; that for B5, over 500000 pM.
On to B6, for which the “A450nm, 20 nM mAb” value was found to be 0.2 A450nm.
For B7, the midpoint of the response, the EC50, lay at 7200 pM.
Still for that read-out and setting: the result for B8 reads 510 pM.
Still for that read-out and setting: next, B9: over 500000 pM; B10: 3000 pM.
As to B11, the EC50 is about 500000 pM.
The molecule B12 returned an EC50 of about 50 pM.
Same read-out and setting: next, B13: about 20 pM; B14: over 500000 pM.

The target in a further assay is T3, Biotin Y46,48,51(SO3) PSGL-1(42-62) …. Put plainly: ELISA, immobilized biotin peptide. Put shortly: as §1
Regarding B1, the “A450nm, 20 nM mAb” value amounted to 2.64 A450nm.
As for B2, the “A450nm, 20 nM mAb” value is 2.73 A450nm.
As for B3, the “A450nm, 20 nM mAb” value was found to be 2.82 A450nm and the EC50 amounted to 510 pM.
On to B4, for which the “A450nm, 20 nM mAb” value amounted to 2.43 A450nm and the EC50 was determined as 100 pM.
For B5, in that order: 2.77 A450nm and 150 pM.
Take B6: the “A450nm, 20 nM mAb” value was found to be 2.77 A450nm.
B7: the “A450nm, 20 nM mAb” value stood at 2.7 A450nm and the concentration giving a half-maximal response (EC50) was about 20 pM.
The like results for B8 were, in that order, 2.52 A450nm and 650 pM.
In the case of B9, the “A450nm, 20 nM mAb” value is 2.57 A450nm and the EC50 is about 10 pM.
Regarding B15, the “A450nm, 20 nM mAb” value was 2.39 A450nm.
With B10, the “A450nm, 20 nM mAb” value worked out at 2.8 A450nm and the EC50 was about 10 pM.
The like results for B11 were, in that order, 2.52 A450nm and about 25 pM.
B12: the “A450nm, 20 nM mAb” value is 2.63 A450nm and a half-maximal effect (EC50) was put at 70 pM.
The like results for B13 were, in that order, 2.77 A450nm and about 20 pM.
For the molecule B14, the “A450nm, 20 nM mAb” value was 2.54 A450nm and the EC50 stood at 80 pM.

Usually EC50 stands for the concentration giving half of the maximal effect. Read a low EC50 as a more potent agent.
